In assay [1] the target is HLA-C*07:02/A*02:01 chimera of Example 2 (heavy chain with human β2m) (human).
For assay [2], the target named is HLA-C*07:02-A*02:01 chimera of Example 4 (heavy chain with human β2m) (human).

For the molecule RYRPGTVAL (modifications not checked) [RYR peptide (…)], the Tm was determined as 48.3 °C in assay [1] and 49.8 °C in assay [2].

(Values after patent US20250299771A1.)
